Biological target: HSP70 (mouse, endogenous), Q61696
Assay: UBQLN2 IP and western blot quantification (primary MEFs)
Conditions: chain shown with the change; n = 3; read off a plot

Sequence of HSP70 (mouse, endogenous), Q61696 (Q61696 whole entry): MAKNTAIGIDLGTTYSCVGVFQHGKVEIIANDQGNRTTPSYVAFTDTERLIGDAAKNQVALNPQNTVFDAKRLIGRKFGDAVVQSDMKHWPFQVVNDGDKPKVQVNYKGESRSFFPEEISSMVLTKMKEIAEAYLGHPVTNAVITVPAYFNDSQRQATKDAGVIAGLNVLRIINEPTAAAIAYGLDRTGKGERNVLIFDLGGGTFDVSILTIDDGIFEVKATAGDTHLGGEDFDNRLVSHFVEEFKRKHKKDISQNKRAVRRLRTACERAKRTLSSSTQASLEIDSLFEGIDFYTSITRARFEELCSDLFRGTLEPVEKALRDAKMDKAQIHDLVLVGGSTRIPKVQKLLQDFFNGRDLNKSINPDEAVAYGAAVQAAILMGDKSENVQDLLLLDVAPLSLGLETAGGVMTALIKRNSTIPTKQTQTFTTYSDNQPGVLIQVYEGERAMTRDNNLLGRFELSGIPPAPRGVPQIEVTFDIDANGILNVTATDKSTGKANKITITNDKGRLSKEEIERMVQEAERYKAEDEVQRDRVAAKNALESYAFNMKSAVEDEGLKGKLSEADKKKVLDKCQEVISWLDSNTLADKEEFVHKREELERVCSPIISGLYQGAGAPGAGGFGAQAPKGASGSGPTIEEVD

ratio to parent: 0.38
B1: UBQLN2 (mouse, endogenous, wild type), Q9QZM0 mP520T (protein)
chain: MAENGESSGPPRPSRGPAAAPGAASPPAEPKIIKVTVKTPKEKEEFAVPENSTVQQFKEAISKRFKSQTDQLVLIFAGKILKDQDTLMQHGIHDGLTVHLVIKSQNRPQGQATTQPSTTAGTSTTTTTTTTAAAPAATTSSAPRSSSTPTTTNSSSFGLGSLSSLSNLGLNSPNFTELQNQMQQQLLASPEMMIQIMENPFVQSMLSNPDLMRQLIMANPQMQQLIQRNPEISHLLNNPDIMRQTLEIARNPAMMQEMMRNQDLALSNLESIPGGYNALRRMYTDIQEPMLNAAQEQFGGNPFATVGSSSTSGEGTQPSRTENRDPLPNPWAPPPTTQTAATTTTTTTTSSGSGSGSSSSSTTAGNTMAAANYVASIFSTPGMQSLLQQITENPQLIQNMLSAPYMRSMMQSLSQNPDMAAQMMLSSPLFTSNPQLQEQMRPQLPNFLQQMQNPETIAAMSNPRAMQALMQIQQGLQTLATEAPGLIPSFAPGVGMGVLGTAITPVGPVTPIGPIGPIVTFTPIGPIGPIGPTGPASSPGSTGTGIPPATTVSSSAPTETISPTSESGPNQQFIQQMVQALTGGSPPQPPNPEVRFQQQLEQLNAMGFLNREANLQALIATGGDINAAIERLLGSQPS
